Measurements published in the Human Domainome abundance scans (Beltran et al. 2025).
± gives the uncertainty stated by the source.

B1: Zinc finger MYM-type protein 6, residues 427 to 504; numbered along this chain, O95789 (parent)
chain: KLKCQHCNHLFATKPELLFYKGKMFLFCGKNCSDEYKKKNKVVAMCDYCKLQKIIKETVRFSGVDKPFCSEVCKFLSA

Variants of: B1
Assay: abundance fitness (aPCA) (normalised: wild type 0, dead -1); higher = more abundant; growth selection in yeast, the domain comes from the species named
Conditions: Homo sapiens

Abundance fitness, by site and new letter:
Q52: E 0.446 ± 0.075; A -0.485 ± 0.11; C -0.576 ± 0.23; T 0.181 ± 0.09; W -0.483 ± 0.2; V 0.173 ± 0.092; R 0.061 ± 0.071; K 0.51 ± 0.11; M 0.234 ± 0.23; P 0.108 ± 0.22; L -0.128 ± 0.093
K53: L -0.351 ± 0.099; M -0.189 ± 0.21; R -0.308 ± 0.096; A -0.126 ± 0.13; F 0.088 ± 0.36; C 0.367 ± 0.12; G -0.148 ± 0.067; E -0.353 ± 0.13; P -0.154 ± 0.15; V -0.127 ± 0.11; W -0.313 ± 0.09; S -0.431 ± 0.15
V59: Y -0.536 ± 0.42; P -0.246 ± 0.15; S -0.314 ± 0.12; K -0.051 ± 0.11; W -0.344 ± 0.17; M 0.461 ± 0.24; R -0.42 ± 0.084; E -0.053 ± 0.13; L 0.051 ± 0.13; T 0.204 ± 0.18; D -0.246 ± 0.21; C -0.452 ± 0.38; A -0.078 ± 0.095; Q -0.416 ± 0.12
I54: N 0.189 ± 0.39; L 0.128 ± 0.078; Q 0.52 ± 0.08; S 0.174 ± 0.18; G 0.238 ± 0.06; V 0.131 ± 0.076; R 0.157 ± 0.068; M 0.623 ± 0.083; P 0.442 ± 0.1; W -0.079 ± 0.11; A 0.557 ± 0.068; K 0.356 ± 0.17; T 0.104 ± 0.17; C 0.675 ± 0.26
T58: H 0.511 ± 0.41; K 0.055 ± 0.44; V 0.031 ± 0.1; A -0.585 ± 0.11; G -0.125 ± 0.084; E -0.277 ± 0.14; D 0.779 ± 0.11; P -0.328 ± 0.21; W -0.669 ± 0.28; R 0.019 ± 0.071; L -0.546 ± 0.45; Y 0.177 ± 0.41
K56: R -0.423 ± 0.089; G -0.192 ± 0.078; V -0.071 ± 0.092; L -0.382 ± 0.16; H -0.113 ± 0.15; M 0.511 ± 0.12; P 0.182 ± 0.12; W -0.16 ± 0.092; E -0.49 ± 0.15; Q -0.044 ± 0.14; S -0.411 ± 0.15; C -0.658 ± 0.43
E57: G -0.163 ± 0.069; C 0.163 ± 0.27; D 0.002 ± 0.3; V -0.059 ± 0.1; L -0.711 ± 0.25; Q -0.289 ± 0.38; S -0.388 ± 0.13; H 0.272 ± 0.27; T 0.026 ± 0.13; R -0.181 ± 0.087; A -0.129 ± 0.1; M 0.605 ± 0.12
F61: S 0.538 ± 0.11; M 0.979 ± 0.1; H -0.151 ± 0.41; A 0.209 ± 0.073; K -0.027 ± 0.18; P -0.308 ± 0.21; E 0.298 ± 0.083; D 0.56 ± 0.09; T 0.348 ± 0.086; C 0.561 ± 0.085; R 0.117 ± 0.074; I 0.679 ± 0.22; W 0.313 ± 0.091; V 0.399 ± 0.079; G -0.002 ± 0.079; L 0.302 ± 0.09
S62: P -0.325 ± 0.12; H 0.585 ± 0.089; C -0.072 ± 0.14; R -0.01 ± 0.096; T -0.141 ± 0.28; M 0.432 ± 0.17; D 0.914 ± 0.083; V -0.536 ± 0.13; A 0.054 ± 0.079; Q 0.316 ± 0.08; W -0.696 ± 0.24; L -0.19 ± 0.2; G 0.327 ± 0.07
K50: R -0.172 ± 0.074; T -0.687 ± 0.45; N -0.23 ± 0.17; V -0.96 ± 0.13; W -0.709 ± 0.13; S -0.422 ± 0.18; Y -0.48 ± 0.5; Q 0.164 ± 0.17
I55: H 0.164 ± 0.15; W -0.623 ± 0.17; G 0.16 ± 0.063; Q -0.185 ± 0.18; S 0.305 ± 0.088; A 0.243 ± 0.082; M 0.211 ± 0.31; K -0.138 ± 0.46; L -0.774 ± 0.25; V 0.32 ± 0.07; R -0.055 ± 0.077; E 0.197 ± 0.12; P 0.281 ± 0.2; T 0.161 ± 0.1
R60: H 0.001 ± 0.28; E 0.008 ± 0.24; K 0.041 ± 0.14; C -0.059 ± 0.1; S 0.39 ± 0.13; V -0.093 ± 0.12; D 0.342 ± 0.21; W -0.468 ± 0.17; Y -0.423 ± 0.38; L -0.309 ± 0.13; P 0.116 ± 0.12; N 0.366 ± 0.19; G -0.215 ± 0.082; M 0.46 ± 0.14; Q 0.014 ± 0.16
L51: G 0.484 ± 0.058; W -0.806 ± 0.13; Q 0.529 ± 0.12; R 0.509 ± 0.064; V -0.119 ± 0.091; A 0.187 ± 0.077; D 0.345 ± 0.32; K 0.414 ± 0.11; S 0.567 ± 0.089; H 0.513 ± 0.17; T 0.551 ± 0.1; C 0.49 ± 0.13; I 0.022 ± 0.32; M 0.805 ± 0.092
